Measurements as given in patent publication US20100144029.

Target: ClpP proteasome (UniProt P0A6G7)

processed E. coli ClpX protein (after proteolytic removal of the T7B carboxyl-terminal extension)
ATPase activity and ability to cooperate with the ClpP proteasome in degrading model protein substrates: full biological activity
